Measurements from the supplement of paper PMC12042874.
± gives the uncertainty stated by the source.

Test: amyloid nucleation score (Sup35N fusion, yeast selection) (log enrichment); library NNK1; higher = more nucleation; inactive = no reads after selection
Method in brief: (§1)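 After 24 hours of induction with 100 μM copper sulfate, psi-negative yeast expressing peptides of 20 random codons fused to Sup35N were grown for 7 days at 30°C on medium lacking adenine and uracil. Input and output plasmid inserts were sequenced with Illumina, and sequences with under 100 input reads were discarded. Scores for nucleation are the DiMSum log enrichment of output over input reads, centred on the mode score of non-aggregating sequences.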

Row | Substance | amyloid nucleation score
1 | CMHFVYNIKVRIIPDEYDHS | 4.6 ± 0.091
2 | KLARTMGYTGTSMVACFCVV | inactive
3 | HPLAAVSKLCRRSRLGLSSR | -0.124 ± 0.35
4 | DCGDSKRYVRITMFYFNRII | -0.262 ± 0.34
5 | LESQNHTFLRFIPKAALRIL | 0.067 ± 0.47
6 | GLNLRCSNTREGKVWNRTW | -0.37 ± 0.47
7 | ERYPCDALDVDLRLTLCRKG | 0.222 ± 0.48
8 | RPPCCKWRDRRCTWGIS | 0.017 ± 0.51
9 | YLSLTTEVWSNGHVWCGIGR | -0.043 ± 1.4
10 | VGDKQFHTKYMVA | 0.031 ± 1.1
11 | RGAPKLCTDIDWARYFNRGL | -0.407 ± 0.4
12 | ARAVFLGEVGSAFFCRQSVW | 0.273 ± 0.74
13 | HAEWGGDAKPTRYRRRNEAG | inactive
14 | HCRPFFSVEINKCLSC | 5.15 ± 0.1
15 | RSCLMSC | 0.141 ± 0.54
16 | SRLWSSCHCHLAAYSVIHDD | inactive
17 | ENSPLK | 0.493 ± 0.4
18 | LFIVSNFLWLIPKWTNSAKF | -1.66 ± 1.4
19 | LKSWVLYYFM | 1.03 ± 0.35
20 | NMVLRPHVMYAWNEPELGNC | -0.22 ± 0.39
21 | IHALLRQNMD | -0.599 ± 0.39
22 | TVYLSNCERIYMQWVREFVS | 2.68 ± 0.14
23 | FRTHD | 0.351 ± 0.97

Test: amyloid nucleation score (Sup35N fusion, yeast selection) (log enrichment); library NNK2; higher = more nucleation; inactive = no reads after selection
Method in brief: as §1

Row | Substance | amyloid nucleation score
24 | LHGSGMENALSVPDMEQFPA | -0.159 ± 0.63
25 | MLCKRPWVTLFRLSKCFTSD | 0.33 ± 0.56
26 | LPWLWQLTFPFWA | 0.582 ± 0.37
27 | GGNCVVNSIFVDLAICYVRR | 9.818 ± 0.057
28 | DYNKLVAWALCLCFFRFRRN | 0.762 ± 0.81
29 | VCGQILDYWFVYT | 0.264 ± 0.23
30 | GHSGTVSTQRVCPSSSLWYR | 0.462 ± 0.4
31 | LENLHTLC | inactive
32 | EYAYILELFYQCFVMPYTLV | 0.392 ± 0.51
33 | RVQAGFIRAGCNIEARKFSG | -0.48 ± 0.28
34 | YALWIVMLVP | -0.104 ± 0.49
35 | AWENYYSGLVNLLAASACIV | -0.163 ± 0.79
36 | KWDIIYNNDVGNLCVLVSN | -0.817 ± 1
37 | INSQVDGFSEWPGVVQSKTL | -0.157 ± 0.38
38 | GKGNAFVLNFSYGYRCVYHG | 6.398 ± 0.04
39 | LLSNFGHVRNSSDKLLLFWS | 2.9 ± 0.18
40 | YSSKFSYGMMCTRWDIVQYK | -0.451 ± 0.76
41 | PSWAELRVAYLLCGSGQPG | 1.43 ± 0.19
42 | ILYGLSVQFLGLFCSYCKSS | 6.013 ± 0.058
43 | TSWNWSFFWCTYYLFTQVRG | -0.772 ± 0.42
44 | SMGLDFPWMSRDTGNFGTEI | -0.337 ± 0.4
45 | YFLHCQPLVWDTLRVRQMVR | -0.062 ± 0.35
46 | IIWVHSTIPSRVNR | -0.183 ± 1
47 | SMGVGTAVTCRTLVVLDGSC | 0.741 ± 0.37
48 | YYGVKSAM | 0.074 ± 0.49
49 | DAVDFGISVSIHRSVREGWR | 4.89 ± 0.11

Row | Substance | amyloid nucleation score
50 | RFGLISANLLSLDY | -0.938 ± 1.1
51 | HLMLRKGLVKCWVQTVVGSG | 1.48 ± 0.33
52 | YNCGTQRYLVFNNESNSFFS | 3.18 ± 0.071
53 | IGLKVSSFNDKVLSGA | -0.285 ± 0.63
54 | MEYRGQVQGCSYPWVYRLGW | -0.078 ± 0.54
55 | DIYLLKIDRSGKCWPTTVDL | -0.067 ± 0.41
56 | SDSDLPGFRREGNRIRVWLG | 0.312 ± 0.49
57 | AAHQMMCRFGPIPF | 1.22 ± 0.23
58 | VNLVYSYFNISGWIEFSSLC | 2.98 ± 0.053
59 | GMFIMQNGLFYRQSLVAWW | -0.995 ± 0.45
60 | YTWVYPF | -1.01 ± 0.33
61 | LRAGTKWTNPFEQVYMTWCG | 0.044 ± 1.1
62 | IVSKDRQNFVRCKDSRDHDV | -0.002 ± 0.39
63 | YINVALWIMSFSGSVWGKEP | 4.55 ± 0.064
64 | LSSCLHEIRDSVVVRVVVVY | -0.684 ± 0.5
65 | SMCWNL | 0.17 ± 0.39
66 | SVCMRIKFWSPAPDAEHEKA | 6.614 ± 0.056
67 | FQSHWVLERGI | -0.901 ± 1
68 | CMVMGNERM | -0.011 ± 0.22
69 | CDKDMRILHMYGLEASEGVY | 0.526 ± 0.26
70 | PIGLGVCLVICLKNEVSRCW | 3.37 ± 0.063
71 | GFWVWMWPRSHCAGGPSLDL | 1.13 ± 0.4
72 | NIFQGAICYQTYGGVFPYFL | 6.151 ± 0.042
73 | LSLLFH | inactive
74 | NPLFHSPV | 0.01 ± 0.65
75 | YYQGRPWSSVLSFYCFHSYS | inactive

Row | Substance | amyloid nucleation score
76 | NHESYWSKSSWFWLFNGVSQ | inactive
77 | NYFLY | 7.28 ± 0.086
78 | WNKFNICFKGKAW | 0.123 ± 0.5
79 | HIGHSWIGSALDTLAYEGYY | -0.49 ± 0.76
80 | MYKIF | inactive
81 | AFASYIKNDPPGEVPMAEL | 0.258 ± 0.24
82 | NNSAECRMSIKRSACGLQIA | 0.961 ± 0.37
83 | GLPFLVESMSCPCDLDTVGW | 2.27 ± 0.23
84 | VGAYPEEKR | -0.013 ± 0.38
85 | IPAKGRNSHSVSCFF | -1.07 ± 0.63
86 | NVLNGISKLMRHFALKYASM | 0.528 ± 0.4
87 | KFFDRYMFTRGLHT | 7.819 ± 0.051
88 | ICCWEMCLGSFFR | 0.287 ± 0.65
89 | ALGHR | -0.079 ± 0.45
90 | HASVHL | 0.497 ± 0.34
91 | SMYCTPFILCYNPHSNRVAH | 9.811 ± 0.037
92 | IVEVVFRSIPIAMDSCCCSN | -1.14 ± 0.28
93 | CYRDMALGGCNVNVQLFVEA | -0.049 ± 0.54
94 | SRLVFS | inactive
95 | GVVTSSSRYLY | 0.072 ± 1.1
96 | RFKSIWAVNVIWNDYVADNG | 7.835 ± 0.077
97 | NGDSGG | 1.02 ± 0.16
98 | CMEKFTLELTVIIRHSNQLG | 0.225 ± 0.31
99 | FNRVDDMCGPWCENWLNGQT | -1.23 ± 1.1
100 | SNLEFNLE | -0.747 ± 0.37
101 | MYNENRLLSSFNSVCCMLWG | 9.787 ± 0.078

Row | Substance | amyloid nucleation score
102 | RHPMSKKTSYKWYVVLTQCR | 0.554 ± 0.31
103 | HVHKL | -0.403 ± 0.39
104 | NTLNVWACVGLLLQ | 6.48 ± 0.075
105 | WKLAHISLDFHFLYSR | -0.269 ± 0.61
106 | NRGTEWISGECRYHWQDVRQ | 0.109 ± 0.21
107 | YVMFRC | 1.31 ± 0.32
108 | RFDSWVAWGFG | 1.74 ± 0.15
109 | KLSSKDHRFYKVSMKRV | 0.247 ± 0.8
110 | LNCVFLSLSQTGGSCELDFV | 7.007 ± 0.043
111 | KDRDNVTGNSVVVRLRRRVL | -0.296 ± 0.54
112 | DHFYWSNLGG | inactive
113 | SFLSKSWY | 1.18 ± 0.17
114 | TQLLQHGGGFRSRISSRLGR | 1.21 ± 0.41
115 | FLYRVNAKWVWLRGLSLWQW | 0.252 ± 0.23
116 | RVRIVPDCFNVAACGGWYMD | -0.062 ± 0.45
117 | NGMRIGTDLGFYSRGMLRTQ | 0.162 ± 0.26
118 | LKLGFRIQLPLLSYGYPFLW | -1.29 ± 0.39
119 | WLFSMRGGDAPKSKRRSIHH | 4.96 ± 0.1
120 | AINGHDRGLSKLGGRAGESD | 0.589 ± 0.42
121 | WWKAGFSCDTEMSRRPHTLV | -0.168 ± 1.1
122 | NIDSVLRNYSCDHRKYHSLE | -0.305 ± 1
123 | SLLLKVMSR | -0.627 ± 0.79
124 | CCPEHRNRAGNNDFWSARTQ | 0.392 ± 0.57
125 | YVPDVLTMYYGHTFTFDCGR | inactive
126 | TAMEVPHRIWLR | -0.305 ± 1.1
127 | DGTYISKVNSRCVEDGARPR | 1.38 ± 0.34
